Test results taken from patent US20210261648A1 (published 2021).

Tests used:
[1] = target: T1, FcγRIa (human, UniProt P12314 16-292); test: SPR (Biacore), captured antibody, soluble FcγR
T1 construct: Whole entry named; also called FcgRIa; CD64A

[2] = target: T2, FcγRIIa type H (human, UniProt P12318 34-217); test: SPR (Biacore), captured antibody, soluble FcγR
T2 construct: extracellular domain; also called FcγRIIaH; FcgRIIaH
T2 sequence (looked up): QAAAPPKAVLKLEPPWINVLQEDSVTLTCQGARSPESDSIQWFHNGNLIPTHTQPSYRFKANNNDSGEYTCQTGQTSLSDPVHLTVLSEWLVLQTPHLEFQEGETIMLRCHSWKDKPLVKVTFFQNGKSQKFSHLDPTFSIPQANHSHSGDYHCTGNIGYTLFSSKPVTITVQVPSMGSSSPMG

[3] = target: T3, FcγRIIb (human, UniProt P31994 43-217); test: SPR (Biacore), captured antibody, soluble FcγR
T3 construct: extracellular domain; also called FcgRIIb; CD32B
T3 sequence (looked up): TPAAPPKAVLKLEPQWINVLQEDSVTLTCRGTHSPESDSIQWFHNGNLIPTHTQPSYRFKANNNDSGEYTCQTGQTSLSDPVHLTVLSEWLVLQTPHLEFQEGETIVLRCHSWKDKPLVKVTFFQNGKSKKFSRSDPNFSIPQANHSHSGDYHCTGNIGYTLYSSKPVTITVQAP

[4] = target: T4, FcγRIIa type R (human, UniProt P12318 34-217); test: SPR (Biacore), captured antibody, soluble FcγR
T4 chain: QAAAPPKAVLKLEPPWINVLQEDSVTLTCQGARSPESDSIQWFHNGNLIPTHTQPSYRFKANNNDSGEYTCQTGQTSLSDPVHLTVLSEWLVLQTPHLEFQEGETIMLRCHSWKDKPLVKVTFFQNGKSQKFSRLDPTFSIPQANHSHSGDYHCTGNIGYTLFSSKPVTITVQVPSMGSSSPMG

[5] = target: T3, FcγRIIb; test: SPR (Biacore); parent = IL6R-B3/IL6R-L
[6] = target: T4, FcγRIIa type R; test: SPR (Biacore); parent = IL6R-B3/IL6R-L

T1 sequence (P12314 16-292): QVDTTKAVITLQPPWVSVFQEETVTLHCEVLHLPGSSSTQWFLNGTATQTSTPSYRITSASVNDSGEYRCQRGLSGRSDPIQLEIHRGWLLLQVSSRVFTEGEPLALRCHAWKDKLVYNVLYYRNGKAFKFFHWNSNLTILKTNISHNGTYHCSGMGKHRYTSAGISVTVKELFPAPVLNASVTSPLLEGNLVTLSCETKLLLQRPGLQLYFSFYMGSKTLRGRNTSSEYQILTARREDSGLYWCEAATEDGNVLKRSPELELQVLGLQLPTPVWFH

| Binder | Kd [1] [µM] | Kd [2] [µM] | Kd [3] [µM] | Kd [4] [µM] | KD(IIb) of the parent polypeptide/KD(IIb) of the altered polypeptide [5] [fold] | KD(IIaR) of the parent polypeptide/KD(IIaR) of the altered polypeptide [6] [fold] |
| --- | --- | --- | --- | --- | --- | --- |
| IL6R-BP503/IL6R-L (antibody, human IgG1, kappa, Alterations in EU numbering, introduced into IL6R-B3) heavy: QVQLQESGPGLVKPSETLSLTCAVSGHSISHDHAWSWVRQPPGEGLEWIGFISYSGITNYNPSLQGRVTISRDNSKNTLYLQMNSLRAEDTAVYYCARSLARTTAMDYWGEGTLVTVSSASTKGPSVFPLAPSSKSTSGGTAALGCLVKDYFPEPVTVSWNSGALTSGVHTFPAVLQSSGLYSLSSVVTVPSSSLGTQTYICNVNHKPSNTKVDKKVEPKSCDKTHTCPPCPAPDLLGDDSVFLFPPKPKDTLMISRTPEVTCVVIDVAEEDGEVKFNWYVDGVEVHNAKTKPREEQDNSTYRVVSVLTVLHQDWLNGKEYKCKVSNKGLPRPIEKTISKAKGQPREPQVYTLPPSRDELTKNQVSLTCLVKGFYPSDIAVEWESNGQPENNYKTTPMVLDSDGSFFLYSKLTVDKSRWQQGNVFSCSVMHEALHNHYTQESLSLSP light: not shown | 0.0012 | 0.86 | 0.0017 | 0.057 | 1810 | 19.4 |
| IL6R-BP510/IL6R-L (antibody, human IgG1, kappa, Alterations in EU numbering, introduced into IL6R-B3) heavy: QVQLQESGPGLVKPSETLSLTCAVSGHSISHDHAWSWVRQPPGEGLEWIGFISYSGITNYNPSLQGRVTISRDNSKNTLYLQMNSLRAEDTAVYYCARSLARTTAMDYWGEGTLVTVSSASTKGPSVFPLAPSSKSTSGGTAALGCLVKDYFPEPVTVSWNSGALTSGVHTFPAVLQSSGLYSLSSVVTVPSSSLGTQTYICNVNHKPSNTKVDKKVEPKSCDKTHTCPPCPAPELLGDDSVFLFPPKPKDTLMISRTPEVTCVVIDVAEEDGPVKFNWYVDGVEVHNAKTKPREEQYNSTYRVVSVLTVLHQDWLNGKEYKCKVSNKALPRPIEKTISKAKGQPREPQVYTLPPSRDELTKNQVSLTCLVKGFYPSDIAVEWESNGQPENNYKTTPPVLDSDGSFFLYSKLTVDKSRWQQGNVFSCSVMHEALHNHYTQESLSLSP light: not shown | 0.006 | 4 | 0.0038 | 0.17 | 807 | 6.6 |
| IL6R-BP511/IL6R-L (antibody, human IgG1, kappa, Alterations in EU numbering, introduced into IL6R-B3) heavy: QVQLQESGPGLVKPSETLSLTCAVSGHSISHDHAWSWVRQPPGEGLEWIGFISYSGITNYNPSLQGRVTISRDNSKNTLYLQMNSLRAEDTAVYYCARSLARTTAMDYWGEGTLVTVSSASTKGPSVFPLAPSSKSTSGGTAALGCLVKDYFPEPVTVSWNSGALTSGVHTFPAVLQSSGLYSLSSVVTVPSSSLGTQTYICNVNHKPSNTKVDKKVEPKSCDKTHTCPPCPAPELLGDDSVFLFPPKPKDTLMISRTPEVTCVVIDVAEEDGPVKFNWYVDGVEVHNAKTKPREEQDNSTYRVVSVLTVLHQDWLNGKEYKCKVSNKALPRPIEKTISKAKGQPREPQVYTLPPSRDELTKNQVSLTCLVKGFYPSDIAVEWESNGQPENNYKTTPPVLDSDGSFFLYSKLTVDKSRWQQGNVFSCSVMHEALHNHYTQESLSLSP light: not shown | 0.006 | 4.3 | 0.0035 | 0.18 | 891 | 6.3 |
| IL6R-BP533/IL6R-L (antibody, human IgG1, kappa, Alterations in EU numbering, introduced into IL6R-B3) heavy: QVQLQESGPGLVKPSETLSLTCAVSGHSISHDHAWSWVRQPPGEGLEWIGFISYSGITNYNPSLQGRVTISRDNSKNTLYLQMNSLRAEDTAVYYCARSLARTTAMDYWGEGTLVTVSSASTKGPSVFPLAPSSKSTSGGTAALGCLVKDYFPEPVTVSWNSGALTSGVHTFPAVLQSSGLYSLSSVVTVPSSSLGTQTYICNVNHKPSNTKVDKKVEPKSCDKTHTCPPCPAPDLLGDDSVFLFPPKPKDTLMISRTPEVTCVVIDVGEEDGEVKFNWYVDGVEVHNAKTKPREEQDNSTYRVVSVLTVLHQDWLNGKEYKCKVSNKALPRPIEKTISKAKGQPREPQVYTLPPSRDELTKNQVSLTCLVKGFYPSDIAVEWESNGQPENNYKTTPLVLDSDGSFFLYSKLTVDKSRWQQGNVFSCSVMHEALHNHYTQESLSLSP light: not shown | 0.0077 | 2.6 | 0.0041 | 0.12 | 756 | 9.2 |
| IL6R-BP536/IL6R-L (antibody, human IgG1, kappa, Alterations in EU numbering, introduced into IL6R-B3) heavy: QVQLQESGPGLVKPSETLSLTCAVSGHSISHDHAWSWVRQPPGEGLEWIGFISYSGITNYNPSLQGRVTISRDNSKNTLYLQMNSLRAEDTAVYYCARSLARTTAMDYWGEGTLVTVSSASTKGPSVFPLAPSSKSTSGGTAALGCLVKDYFPEPVTVSWNSGALTSGVHTFPAVLQSSGLYSLSSVVTVPSSSLGTQTYICNVNHKPSNTKVDKKVEPKSCDKTHTCPPCPAPDLLGDDSVFLFPPKPKDTLMISRTPEVTCVVIDVSEEDGEVKFNWYVDGVEVHNAKTKPREEQDNSTYRVVSVLTVLHQDWLNGKEYKCKVSNKGLPRPIEKTISKAKGQPREPQVYTLPPSRDELTKNQVSLTCLVKGFYPSDIAVEWESNGQPENNYKTTPMVLDSDGSFFLYSKLTVDKSRWQQGNVFSCSVMHEALHNHYTQESLSLSP light: not shown | 0.0089 | 1.3 | 0.003 | 0.079 | 1040 | 13.9 |
